Test results: US20260250425A1 (UNIVERSITY OF CHICAGO, published 2026)
Positions count from the first letter of the chain named. Names may count otherwise.

B1: 3F6-hIgG1HEK (antibody)
heavy: not shown
light: DIVLTQSPDSLAVSLGERATINCRASESVEYSGASLMQWYQHKPGQPPKLLIYAASNRESGVPDRFSGSGSGTDFTLTISPVQAEDVAMYFCQQSRKVPSTFGGGTKLEIKRTVAAPSVFIFPPSDEQLKSGTASVVCLLNNFYPREAKVQWKVDNALQSGNSQESVTEQDSKDSTYSLSSTLTLSKADYEKHKVYACEVTHQGLSSPVTKSFNRGEC
modifications: Asn297 N-glycans as made by HEK-293F cells (more G1F, G2F and sialic acid than the CHO product)
notes: also called 3F6-hIgG1HEK WT; 3F6-IgG1
B2: 3F6-hIgG1HEK-deSia (antibody)
heavy: not shown
light: B1 light
modifications: Asn297 N-glycans de-sialylated with neuraminidase
notes: See m5
B3: 3F6-hIgG1CHO-deSia (antibody)
heavy: not shown
light: B1 light
modifications: Asn297 N-glycans de-sialylated with neuraminidase
notes: 3F6-hIgG1CHO after neuraminidase
B4: 3F6-hIgG1CHO (antibody)
heavy: not shown
light: B1 light
modifications: Asn297 N-glycans as made by CHO-DG44 cells (mainly G0F, less G1F and G2F)
notes: Humanized 3F6 human IgG1 produced in CHO-DG44 cells; also called 3F6-hIgG1CHO WT; CHO-produced antibody
B5: 3F6-hIgG1HEK-G1F (antibody)
heavy: not shown
light: B1 light
modifications: Asn297 N-glycan remodelled chemoenzymatically to homogeneous G1F
notes: See m5; also called 3F6-hIgGHEK-G1F
B6: 3F6-hIgG1HEK-G0F (antibody)
heavy: not shown
light: B1 light
modifications: Asn297 N-glycan remodelled chemoenzymatically to homogeneous G0F
notes: See m5; also called 3F6-hIgGHEK-G0F
B7: 3F6-hIgG1CHO-G2F (antibody)
heavy: not shown
light: B1 light
modifications: Asn297 N-glycan remodelled chemoenzymatically to homogeneous G2F
notes: Endo-S2 deglycosylation and EndoS2-D184M transfer of G2F glycan; also called 3F6-hIgGCHO-G2F
B8: 3F6-hIgG1HEK-deGal (antibody)
heavy: not shown
light: B1 light
modifications: Asn297 N-glycans de-galactosylated with β1-4-galactosidase
notes: See m5
B9: 3F6-hIgG1CHO-Gal (antibody)
heavy: not shown
light: B1 light
modifications: Asn297 N-glycans enzymatically galactosylated (β1,4GalT)
notes: 3F6-hIgG1CHO after enzymatic galactosylation; also called 3F6-IgG1CHO-Gal
B10: 3F6-hIgG1HEK-G2F (antibody)
heavy: not shown
light: B1 light
modifications: Asn297 N-glycan remodelled chemoenzymatically to homogeneous G2F
notes: See m5; also called 3F6-hIgGHEK-G2F
B11: 3F6-hIgG1HEK-afu (antibody)
heavy: not shown
light: B1 light
modifications: Asn297 N-glycans low in fucose and galactose (HEK-293F cells grown with kifunensine)
notes: See m5; also called afucosylated 3F6-hIgG1HEK
B12: 3F6-hIgG1HEK-KA (antibody, name in EU numbering)
heavy: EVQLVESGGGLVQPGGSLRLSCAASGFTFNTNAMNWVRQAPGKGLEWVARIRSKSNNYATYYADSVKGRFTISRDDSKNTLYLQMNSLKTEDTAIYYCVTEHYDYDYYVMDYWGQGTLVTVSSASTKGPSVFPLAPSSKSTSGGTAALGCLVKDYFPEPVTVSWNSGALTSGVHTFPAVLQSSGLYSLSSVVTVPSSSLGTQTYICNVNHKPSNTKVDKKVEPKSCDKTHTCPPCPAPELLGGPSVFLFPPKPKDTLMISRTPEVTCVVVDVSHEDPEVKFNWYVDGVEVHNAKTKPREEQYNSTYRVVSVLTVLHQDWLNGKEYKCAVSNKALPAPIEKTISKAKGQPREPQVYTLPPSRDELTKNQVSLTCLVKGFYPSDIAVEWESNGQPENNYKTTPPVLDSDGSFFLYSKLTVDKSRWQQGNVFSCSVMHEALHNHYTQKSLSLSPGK
light: B1 light
notes: also called KA variant

These binders were tested against T1, human C1q (human, UniProt P02745 23-245; P02746 28-253; P02747 29-245) (assay: ELISA, human C1q-coated plate).
T1 construct: Purified human C1q (CompTech); also called hc1q; hC1q
T1 sequence (P02745 23-245 limits assumed, chain 1 of 3): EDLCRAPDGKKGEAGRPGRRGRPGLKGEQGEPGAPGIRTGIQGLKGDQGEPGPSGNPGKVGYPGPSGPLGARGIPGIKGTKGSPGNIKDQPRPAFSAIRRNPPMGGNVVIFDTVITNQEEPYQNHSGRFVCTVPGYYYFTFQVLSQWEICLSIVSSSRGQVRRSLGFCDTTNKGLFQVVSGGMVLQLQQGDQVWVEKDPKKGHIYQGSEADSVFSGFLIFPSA
T1 sequence (P02746 28-253 limits assumed, chain 2 of 3): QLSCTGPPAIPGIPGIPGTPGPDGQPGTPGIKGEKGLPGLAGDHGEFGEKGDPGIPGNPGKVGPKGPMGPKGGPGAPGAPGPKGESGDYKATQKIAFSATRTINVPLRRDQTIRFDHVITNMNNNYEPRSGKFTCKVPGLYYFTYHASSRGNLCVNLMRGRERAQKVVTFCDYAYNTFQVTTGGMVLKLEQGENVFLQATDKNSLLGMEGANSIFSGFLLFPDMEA
T1 sequence (P02747 29-245 limits assumed, chain 3 of 3): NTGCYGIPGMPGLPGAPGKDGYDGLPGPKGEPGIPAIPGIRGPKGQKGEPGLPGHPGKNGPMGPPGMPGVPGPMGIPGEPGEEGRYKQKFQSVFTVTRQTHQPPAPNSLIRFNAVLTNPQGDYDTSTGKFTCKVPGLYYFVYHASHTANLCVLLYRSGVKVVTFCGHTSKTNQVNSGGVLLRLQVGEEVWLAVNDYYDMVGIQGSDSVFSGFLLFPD

Binder | Ka [M⁻¹]
B1 | 1.87e+07
B2 | 3.37e+07
B3 | 5.5e+06
B4 | 4.91e+06
B5 | 3.83e+07
B6 | 6.94e+06
B7 | 5.11e+07
B8 | 4e+06
B9 | 2.17e+07
B10 | 5.5e+07

Molecular target: T1, human C1q
Test: ELISA, human C1q-coated plate
Remark: another data set of the same source

Binder | Ka [M⁻¹]
B1 | 1.87e+07
B11 | 5.97e+06
B4 | 4.91e+06
B12 | 1.37e+06

These binders were tested against T2, human FcγRIA (human, UniProt P12314 16-288, limits assumed) (assay: ELISA, His-tagged FcγR captured by anti-His antibody).
T2 construct: Recombinant His-tagged protein
T2 sequence (P12314 16-288 limits assumed): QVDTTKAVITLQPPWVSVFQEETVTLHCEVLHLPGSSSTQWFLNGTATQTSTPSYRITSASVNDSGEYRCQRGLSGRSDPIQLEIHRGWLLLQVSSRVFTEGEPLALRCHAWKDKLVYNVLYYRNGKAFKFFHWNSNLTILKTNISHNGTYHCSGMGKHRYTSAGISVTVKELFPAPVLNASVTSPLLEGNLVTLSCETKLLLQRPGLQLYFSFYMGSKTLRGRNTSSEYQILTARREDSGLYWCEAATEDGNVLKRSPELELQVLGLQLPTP

Binder | Ka [M⁻¹]
B1 | 7.88e+08
B11 | 5.83e+08
B4 | 7.66e+08
B12 | 7.86e+08

What follows are binders tested against T3, human FcγRIIA (R131) (human, UniProt P12318 34-218, limits assumed) in the same assay as above.
T3 construct: Recombinant His-tagged protein
T3 sequence (looked up): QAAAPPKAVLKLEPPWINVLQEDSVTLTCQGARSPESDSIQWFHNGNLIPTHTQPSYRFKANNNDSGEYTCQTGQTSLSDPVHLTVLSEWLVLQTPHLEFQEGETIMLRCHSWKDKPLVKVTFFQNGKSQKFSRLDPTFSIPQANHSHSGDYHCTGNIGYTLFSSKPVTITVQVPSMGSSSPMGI

Binder | Ka [M⁻¹]
B1 | 1.53e+06
B11 | 1.82e+06
B4 | 2.36e+06
B12 | 1.81e+06

The binders below were run against T4, human FcγRIIA (H131) (human, UniProt P12318 34-218, limits assumed) in the same assay as above.
T4 construct: Recombinant His-tagged protein
T4 sequence (looked up): T3 sequence (looked up) with R134H

Binder | Ka [M⁻¹]
B1 | 1.13e+06
B11 | 1.51e+06
B4 | 1.75e+06
B12 | 1.23e+06

The binders below were run against T5, human FcγRIIB (human, UniProt P31994 43-217, limits assumed) in the same assay as above.
T5 construct: Recombinant His-tagged protein; also called FcγRIIB (human)
T5 sequence (looked up): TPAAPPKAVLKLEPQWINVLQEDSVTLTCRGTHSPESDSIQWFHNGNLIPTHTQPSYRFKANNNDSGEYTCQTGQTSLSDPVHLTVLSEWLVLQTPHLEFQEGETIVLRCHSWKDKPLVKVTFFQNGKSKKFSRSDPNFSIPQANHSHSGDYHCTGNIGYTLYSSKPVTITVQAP

Binder | Ka [M⁻¹]
B1 | 925000
B11 | 179000
B4 | 1.65e+06
B12 | 1.18e+06

The binders below were run against T6, human FcγRIIIA (V158) (human, UniProt P08637 17-208) in the same assay as above.
T6 construct: Recombinant His-tagged protein
T6 sequence (P08637 17-208 F176V limits assumed): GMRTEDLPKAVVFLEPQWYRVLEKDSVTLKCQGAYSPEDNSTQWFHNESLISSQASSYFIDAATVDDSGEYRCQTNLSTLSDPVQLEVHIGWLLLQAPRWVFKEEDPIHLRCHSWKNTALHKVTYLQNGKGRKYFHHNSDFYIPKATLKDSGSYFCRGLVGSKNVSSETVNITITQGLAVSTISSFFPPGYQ

Binder | Ka [M⁻¹]
B1 | 2.31e+07
B11 | 5.63e+07
B4 | 2.75e+07
B12 | 1.4e+07

What follows are binders tested against T7, human FcγRIIIA (F158) (human, UniProt P08637 17-208) in the same assay as above.
T7 construct: Recombinant His-tagged protein
T7 sequence (P08637 17-208 limits assumed): as the sequence (P08637 17-208 F176V limits assumed) above, with V160F counted along it

Binder | Ka [M⁻¹]
B1 | 1.97e+06
B11 | 9.2e+06
B4 | 3.09e+06
B12 | 1.51e+06

What follows are binders tested against T8, mouse FcγRI (mouse, UniProt P26151 25-297) in the same assay as above.
T8 construct: Recombinant His-tagged protein
T8 sequence (looked up): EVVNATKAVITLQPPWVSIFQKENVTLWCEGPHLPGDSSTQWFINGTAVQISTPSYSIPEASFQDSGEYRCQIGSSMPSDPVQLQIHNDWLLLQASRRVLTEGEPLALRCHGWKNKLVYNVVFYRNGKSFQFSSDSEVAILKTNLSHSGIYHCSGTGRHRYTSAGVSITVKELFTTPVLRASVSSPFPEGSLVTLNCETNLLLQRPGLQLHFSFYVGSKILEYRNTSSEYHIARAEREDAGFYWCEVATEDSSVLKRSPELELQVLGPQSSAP

Binder | Ka [M⁻¹]
B1 | 1.84e+08
B11 | 9.2e+07
B4 | 1.77e+08
B12 | 3.97e+08

These binders were tested against T9, mouse FcγRIIB (mouse, UniProt P08101 30-210, limits assumed) in the same assay as above.
T9 construct: Recombinant His-tagged protein
T9 sequence (looked up): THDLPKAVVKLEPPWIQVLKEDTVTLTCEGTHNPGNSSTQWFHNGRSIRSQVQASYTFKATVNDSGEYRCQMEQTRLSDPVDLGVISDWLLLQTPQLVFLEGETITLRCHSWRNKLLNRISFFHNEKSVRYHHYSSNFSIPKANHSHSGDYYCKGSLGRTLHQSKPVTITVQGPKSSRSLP

Binder | Ka [M⁻¹]
B1 | 1.61e+06
B11 | 1.62e+06
B4 | 1.53e+06
B12 | 3.35e+06

The binders below were run against T10, mouse FcγRIII (mouse, UniProt P08508 31-215) in the same assay as above.
T10 construct: Recombinant His-tagged protein
T10 sequence (looked up): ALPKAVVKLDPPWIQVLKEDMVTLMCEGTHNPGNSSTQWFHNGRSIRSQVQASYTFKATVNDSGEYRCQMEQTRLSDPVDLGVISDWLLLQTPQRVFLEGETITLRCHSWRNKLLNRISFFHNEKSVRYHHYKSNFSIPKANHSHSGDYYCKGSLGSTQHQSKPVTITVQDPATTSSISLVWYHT

Binder | Ka [M⁻¹]
B1 | 1.69e+06
B11 | 2.3e+06
B4 | 1.49e+06
B12 | 2.96e+06

These binders were tested against T11, mouse FcγRIV (mouse, UniProt A0A0B4J1G0 21-203) in the same assay as above.
T11 construct: Recombinant His-tagged protein
T11 sequence: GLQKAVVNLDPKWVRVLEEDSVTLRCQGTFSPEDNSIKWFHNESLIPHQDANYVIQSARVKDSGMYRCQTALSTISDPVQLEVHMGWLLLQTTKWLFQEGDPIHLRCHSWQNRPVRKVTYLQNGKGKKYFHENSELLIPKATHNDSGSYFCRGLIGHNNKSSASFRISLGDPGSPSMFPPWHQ

Binder | Ka [M⁻¹]
B1 | 1.35e+08
B11 | 3.19e+08
B4 | 1.15e+08
B12 | 2.66e+08

These binders were tested against T12, mouse C1q (mouse, UniProt P98086 23-245; P14106 26-253; Q02105 30-246) (assay: ELISA, plate coated with BALB/c mouse serum (mouse C1q)).
T12 construct: Plates were coated with BALB/c mouse serum as the source of mouse C1q; also called mc1q
T12 sequence (P98086 23-245 limits assumed, chain 1 of 3): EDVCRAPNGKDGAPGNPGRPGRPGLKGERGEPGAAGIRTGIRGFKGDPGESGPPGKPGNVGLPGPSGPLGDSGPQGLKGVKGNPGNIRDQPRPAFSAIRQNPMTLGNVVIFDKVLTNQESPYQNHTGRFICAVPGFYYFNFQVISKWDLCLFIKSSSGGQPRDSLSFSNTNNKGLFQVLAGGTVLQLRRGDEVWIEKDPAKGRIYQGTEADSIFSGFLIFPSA
T12 sequence (P14106 26-253 limits assumed, chain 2 of 3): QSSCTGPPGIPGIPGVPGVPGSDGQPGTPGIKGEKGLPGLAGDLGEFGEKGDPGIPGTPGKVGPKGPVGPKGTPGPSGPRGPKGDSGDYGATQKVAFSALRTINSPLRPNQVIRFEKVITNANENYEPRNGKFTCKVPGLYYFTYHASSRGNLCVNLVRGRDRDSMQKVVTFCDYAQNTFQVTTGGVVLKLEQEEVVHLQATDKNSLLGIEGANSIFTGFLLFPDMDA
T12 sequence (Q02105 30-246 limits assumed, chain 3 of 3): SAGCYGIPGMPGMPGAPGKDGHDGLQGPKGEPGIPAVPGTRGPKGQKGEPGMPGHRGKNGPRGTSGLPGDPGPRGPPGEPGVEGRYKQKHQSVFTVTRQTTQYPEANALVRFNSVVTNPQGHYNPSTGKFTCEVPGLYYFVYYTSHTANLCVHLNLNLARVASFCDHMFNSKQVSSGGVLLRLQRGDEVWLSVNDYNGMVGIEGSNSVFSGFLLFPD

Binder | Ka [M⁻¹]
B1 | 6.08e+07
B4 | 8.87e+06

Molecular target: T12, mouse C1q
Test: as above
Remark: another data set of the same source

Binder | Ka [M⁻¹]
B1 | 6.08e+07
B11 | 2.79e+06
B4 | 8.87e+06
B12 | 1.34e+06
